Data set [1] deals with CC(C)(O/N=C(\C(=O)N[C@@H]1C(=O)N2C(C(=O)[O-])=C(C[n+]3ccccc3)CS[C@H]12)c1csc(N)n1)C(=O)O. The data set can be described thus: (§1) Ratio of Kcat to Km of Morganella morganii AmpC assessed as drug hydrolysis by spectrophotometry.
Data set [2] concerns O=C(Cc1cccs1)N[C@@H]1C(=O)N2C(C(=O)O)=C(/C=C/c3ccc([N+](=O)[O-])cc3[N+](=O)[O-])CS[C@H]12. The description is as §1.
For data set [3], the system named is Nc1nc(/C(=N/O)C(=O)N[C@@H]2C(=O)N3C(C(=O)O)=C(/C=C4\CCN([C@@H]5CCNC5)C4=O)CS[C@H]23)ns1. The data set is described as §1.
Data set [4] deals with O=C(Cc1cccs1)N[C@@H]1C(=O)N2C(C(=O)[O-])=C(C[n+]3ccccc3)CS[C@H]12. Described as §1.
Data set [5] concerns CO/N=C(\C(=O)N[C@@H]1C(=O)N2C(C(=O)[O-])=C(C[N+]3(C)CCCC3)CS[C@H]12)c1csc(N)n1. Described as §1.
Data set [6] deals with CC1(C)S[C@@H]2[C@H](NC(=O)Cc3ccccc3)C(=O)N2[C@H]1C(=O)O. Described as §1.
In data set [7] the test system is CC(C)(O/N=C(\C(=O)N[C@@H]1C(=O)N2C(C(=O)[O-])=C(C[n+]3ccccc3)CS[C@H]12)c1csc(N)n1)C(=O)O. The data set can be described thus: (§2) Activity of Morganella morganii AmpC assessed as drug hydrolysis by spectrophotometry.
Data set [8] deals with O=C(Cc1cccs1)N[C@@H]1C(=O)N2C(C(=O)O)=C(/C=C/c3ccc([N+](=O)[O-])cc3[N+](=O)[O-])CS[C@H]12. The data set is described as §2.
Data set [9] concerns Nc1nc(/C(=N/O)C(=O)N[C@@H]2C(=O)N3C(C(=O)O)=C(/C=C4\CCN([C@@H]5CCNC5)C4=O)CS[C@H]23)ns1. Described as §2.
Data set [10] deals with O=C(Cc1cccs1)N[C@@H]1C(=O)N2C(C(=O)[O-])=C(C[n+]3ccccc3)CS[C@H]12. The description is as §2.
Data set [11] concerns CO/N=C(\C(=O)N[C@@H]1C(=O)N2C(C(=O)[O-])=C(C[N+]3(C)CCCC3)CS[C@H]12)c1csc(N)n1. The data set is described as §2.
Data set [12] deals with CC1(C)S[C@@H]2[C@H](NC(=O)Cc3ccccc3)C(=O)N2[C@H]1C(=O)O. The description is as §2.

One may read the kcat/Km as the second-order rate constant that governs catalysis at low substrate concentration. Broadly, the Km is the substrate concentration at which the rate is half of its maximum. In general, kcat refers to the maximal rate divided by the concentration of active sites.

As to “Beta-lactamase (Morganella morganii) (from UniProt P94958)”, the kcat/Km was less than 71000 M⁻¹ s⁻¹ in [1]; 3.9e+07 M⁻¹ s⁻¹ in data set [2]; less than 2000 M⁻¹ s⁻¹ in data set [3]; 2.8e+06 M⁻¹ s⁻¹ in data set [4]; less than 510 M⁻¹ s⁻¹ in data set [5]; 2.4e+07 M⁻¹ s⁻¹ in [6]. Besides, the Km in data set [7] was found to be 14 µM; in data set [8] it was 31 µM; in data set [9], 23 µM; in data set [10], 260 µM; in data set [11], 690 µM; in [12], 7.9 µM. The kcat was less than 1 s⁻¹ in data set [7]; 1200 s⁻¹ in [8]; less than 0.047 s⁻¹ in data set [9]; 740 s⁻¹ in [10]; less than 0.35 s⁻¹ in [11]; 190 s⁻¹ in [12].

The values above are taken from ChEMBL document CHEMBL1143427, “Interactions of ceftobiprole with beta-lactamases from molecular classes A to D” (Antimicrob Agents Chemother, 2007).
